According to US20230048553A1 (AbbVie / Abbott, published 2023):
Positions count from the first letter of the chain named.

T1: mouse CCR8 (mouse, UniProt P56484 1-353, limits assumed)
T1 sequence (looked up): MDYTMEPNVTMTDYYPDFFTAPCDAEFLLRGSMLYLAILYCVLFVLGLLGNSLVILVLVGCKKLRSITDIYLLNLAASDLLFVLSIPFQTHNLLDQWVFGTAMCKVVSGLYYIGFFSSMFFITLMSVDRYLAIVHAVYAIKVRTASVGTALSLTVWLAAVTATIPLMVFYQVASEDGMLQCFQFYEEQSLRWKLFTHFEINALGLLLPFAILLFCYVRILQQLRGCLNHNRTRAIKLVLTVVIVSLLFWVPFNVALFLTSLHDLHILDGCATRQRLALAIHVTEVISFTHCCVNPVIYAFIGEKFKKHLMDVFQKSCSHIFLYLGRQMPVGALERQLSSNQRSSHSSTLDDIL

T2: rat CCR8 (rat, UniProt D4ADE0 1-353)
T2 sequence: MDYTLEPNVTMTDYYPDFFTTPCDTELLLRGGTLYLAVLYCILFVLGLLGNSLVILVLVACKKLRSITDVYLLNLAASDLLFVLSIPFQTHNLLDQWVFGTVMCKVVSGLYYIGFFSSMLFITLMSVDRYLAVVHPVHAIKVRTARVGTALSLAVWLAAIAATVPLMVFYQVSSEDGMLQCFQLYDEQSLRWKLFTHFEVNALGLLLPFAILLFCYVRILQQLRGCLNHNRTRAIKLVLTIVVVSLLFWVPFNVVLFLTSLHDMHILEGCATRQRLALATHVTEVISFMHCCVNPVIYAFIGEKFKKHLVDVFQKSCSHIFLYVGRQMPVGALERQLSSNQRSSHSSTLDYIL

T3: rabbit CCR8 (rabbit, UniProt G1T2B2 1-355)
T3 sequence: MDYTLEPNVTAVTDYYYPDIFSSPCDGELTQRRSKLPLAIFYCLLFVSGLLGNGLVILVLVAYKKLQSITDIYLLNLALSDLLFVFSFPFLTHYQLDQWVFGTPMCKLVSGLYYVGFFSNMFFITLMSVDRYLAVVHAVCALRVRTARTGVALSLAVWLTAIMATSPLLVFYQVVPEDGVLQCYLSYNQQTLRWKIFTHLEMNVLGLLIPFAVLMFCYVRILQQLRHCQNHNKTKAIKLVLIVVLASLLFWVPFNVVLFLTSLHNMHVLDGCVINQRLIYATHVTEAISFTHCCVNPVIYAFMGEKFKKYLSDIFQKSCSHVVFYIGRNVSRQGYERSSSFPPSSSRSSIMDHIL

B1: AC-264700 (antibody, V domains shown)
VH: EVQLVESGGGLVQPGGSLKLSCAASGFIFSNAVMYWVRQASGKGLEWVARIKTKFNNYATYYADSVKGRFTISRDDSKNMVYLQMNSLKTEDTAVYYCTAGDRNKPFAYWGQGTLVTVSS
VL: ETVVTQSPATLSLSPGERATLSCRASDSVITLLHWFQQKPGQAPRLLIHGASNLESRVPARFSGSGSGTDFTLTISSLEPEDFATYFCQQSWNDPYTFGQGTKLEIKR
B2: AC-277357 (fucosylated) (antibody, human IgG1, kappa, V domains shown)
VH: B1 VH with S65A
VL: B1 VL with D27T
notes: AC-264700 with LCDR1 D27→T. Human IgG1 kappa
B3: ABBV-514 (antibody, human IgG1, kappa, V domains shown)
VH: B1 VH with S65A
VL: B1 VL with D27T
modifications: afucosylated N-glycan at ASN-300 (EU: ASN-297)
notes: Afucosylated humanized IgG1 kappa made in cells expressing Pseudomonas RMD
B4: AC-277483 (antibody, V domains shown)
VH: B1 VH with S65A
VL: B1 VL with S28A
B5: AC-277371 (antibody, V domains shown)
VH: B1 VH with S65A
VL: B1 VL with D27G

Key:
[1] = molecular target: T4, human CCR8 (chemokine receptor 8) (human, UniProt P51685 1-355); assay: cell-based or functional assay
cynomolgus CCR8 [2] = molecular target: T5, cynomolgus CCR8 (cynomolgus monkey, UniProt G7NYJ2 1-355); assay: cell-based or functional assay
cynomolgus CCR8 [3] = molecular target: T5, cynomolgus CCR8; assay: flow cytometry on cyCCR8 Jurkat cells
Description: (§1) The candidate molecules were assessed for binding capacity using flow cytometry through known methods against overexpressed huCCR8 or cyCCR8 on the surface of Jurkat cells. The exemplary antibodies were tested for their ability to self-interact, bind to huCCR8 and cyCCR8, capacity for ADCC using the reporter bioassay, and non-specific binding to HEK293 cells. […] The AC-SINS self-interaction scores for each candidate was <1. At 100 μg/mL, non-specific binding maximums ranged from 97 to 144 GMFI. At 10 μg/mL, non-specific binding maximums ranged from 94-111 GFMI. At 1 μg/mL, non-specific binding maximums ranged from 87-102 GMFI.

[4] = molecular target: T4, human CCR8 (chemokine receptor 8); assay: flow cytometry on huCCR8 Jurkat cells
Description: as §1

mouse CCR8 = molecular target: T1, mouse CCR8; assay: not told
rat CCR8 = molecular target: T2, rat CCR8; assay: not told
rabbit CCR8 = molecular target: T3, rabbit CCR8; assay: not told
[5] = molecular target: T4, human CCR8 (chemokine receptor 8); assay: cell-based or functional assay; remark: listed apart in the source

T4 sequence (P51685 whole entry): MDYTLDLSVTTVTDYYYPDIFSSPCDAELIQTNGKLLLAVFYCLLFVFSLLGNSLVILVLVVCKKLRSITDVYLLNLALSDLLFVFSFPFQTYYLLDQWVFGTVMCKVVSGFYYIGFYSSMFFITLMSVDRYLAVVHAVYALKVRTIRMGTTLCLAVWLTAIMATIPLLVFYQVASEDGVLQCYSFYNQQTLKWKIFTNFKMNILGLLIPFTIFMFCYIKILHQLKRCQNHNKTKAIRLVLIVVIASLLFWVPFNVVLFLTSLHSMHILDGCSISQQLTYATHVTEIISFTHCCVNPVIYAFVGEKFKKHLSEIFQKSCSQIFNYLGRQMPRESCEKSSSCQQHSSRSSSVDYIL
T5 sequence (G7NYJ2 entry or part of it): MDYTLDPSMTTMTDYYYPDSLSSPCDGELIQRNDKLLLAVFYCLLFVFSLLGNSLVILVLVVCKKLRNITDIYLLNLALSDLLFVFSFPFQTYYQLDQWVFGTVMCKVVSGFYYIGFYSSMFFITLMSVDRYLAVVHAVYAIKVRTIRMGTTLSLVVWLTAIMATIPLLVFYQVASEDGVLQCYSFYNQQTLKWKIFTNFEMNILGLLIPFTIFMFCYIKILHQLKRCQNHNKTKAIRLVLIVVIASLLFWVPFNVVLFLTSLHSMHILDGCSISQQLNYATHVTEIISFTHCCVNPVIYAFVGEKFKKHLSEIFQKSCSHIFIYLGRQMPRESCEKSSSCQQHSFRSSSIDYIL

Row | Binder | ADCC reporter huCCR8 EC50 [1] [nM] | ADCC reporter huCCR8 Max Fold Induction [1] [fold] | ADCC reporter cyCCR8 EC50 (cynomolgus CCR8 [2]) [nM] | ADCC reporter cyCCR8 Max Fold Induction (cynomolgus CCR8 [2]) [fold] | EC50 (cynomolgus CCR8 [3]) [nM] | EC50 [4] [nM] | binding result (mouse CCR8) | binding result (rat CCR8) | binding result (rabbit CCR8) | EC50 of CCL1 blockade (CCR8 beta-arrestin reporter assay) [5] [µg/mL]
1 | B1 | 0.12 | 12.8 | 0.79 | 12 | 5.27 | 2.33 | – | – | – | –
2 | B2 | 0.1 | 15.7 | 0.75 | 12.3 | 2.37 | 1.51 | – | – | – | –
3 | B3 | – | – | – | – | – | – | no binding | no binding | no binding | 23.1
4 | B4 | 0.07 | 13.6 | 1.19 | 10 | 5.93 | 2.9 | – | – | – | –
5 | B5 | 0.05 | 12.7 | 0.57 | 11.7 | 4.83 | 1.87 | – | – | – | –
